US6639060

Molecular target: human erbB-3 protein, gp180^erbB-3 (human) (UniProt P21860)
Assay: cell-based or functional assay

Sequence of UniProt P21860 (P21860 20-1342): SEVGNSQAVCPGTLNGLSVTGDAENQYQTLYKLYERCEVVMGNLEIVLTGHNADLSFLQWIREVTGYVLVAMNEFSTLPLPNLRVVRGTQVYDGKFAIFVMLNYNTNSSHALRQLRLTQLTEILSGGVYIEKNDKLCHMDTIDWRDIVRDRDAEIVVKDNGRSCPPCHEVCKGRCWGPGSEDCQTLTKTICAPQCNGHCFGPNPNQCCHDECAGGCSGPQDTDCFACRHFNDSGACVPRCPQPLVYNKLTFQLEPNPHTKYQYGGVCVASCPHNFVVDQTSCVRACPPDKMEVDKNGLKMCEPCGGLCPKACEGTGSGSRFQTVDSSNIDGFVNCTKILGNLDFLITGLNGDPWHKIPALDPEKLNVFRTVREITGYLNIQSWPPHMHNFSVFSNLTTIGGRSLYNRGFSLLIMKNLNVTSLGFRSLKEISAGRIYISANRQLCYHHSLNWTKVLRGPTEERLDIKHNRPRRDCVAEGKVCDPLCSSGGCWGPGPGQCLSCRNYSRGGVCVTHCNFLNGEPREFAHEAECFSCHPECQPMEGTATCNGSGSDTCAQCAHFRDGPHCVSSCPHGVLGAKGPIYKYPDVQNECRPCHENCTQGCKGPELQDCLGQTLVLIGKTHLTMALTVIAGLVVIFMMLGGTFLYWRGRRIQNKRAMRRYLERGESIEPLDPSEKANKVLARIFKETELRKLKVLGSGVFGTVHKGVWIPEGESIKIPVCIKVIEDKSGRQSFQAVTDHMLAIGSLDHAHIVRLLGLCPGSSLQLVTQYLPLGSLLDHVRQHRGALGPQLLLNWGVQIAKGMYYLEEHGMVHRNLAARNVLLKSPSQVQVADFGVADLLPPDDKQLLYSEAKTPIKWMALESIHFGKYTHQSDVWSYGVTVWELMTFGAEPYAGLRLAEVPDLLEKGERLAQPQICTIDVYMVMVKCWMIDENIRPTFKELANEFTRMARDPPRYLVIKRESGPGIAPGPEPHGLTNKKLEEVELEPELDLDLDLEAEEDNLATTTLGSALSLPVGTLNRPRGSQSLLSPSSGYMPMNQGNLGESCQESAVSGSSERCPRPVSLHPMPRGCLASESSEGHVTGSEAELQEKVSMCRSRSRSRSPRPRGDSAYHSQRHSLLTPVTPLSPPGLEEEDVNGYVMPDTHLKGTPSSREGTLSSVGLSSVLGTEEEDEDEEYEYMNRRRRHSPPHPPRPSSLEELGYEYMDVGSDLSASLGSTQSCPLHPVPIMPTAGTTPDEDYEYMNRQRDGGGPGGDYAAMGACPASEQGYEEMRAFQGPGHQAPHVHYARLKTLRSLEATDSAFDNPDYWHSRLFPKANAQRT

EGF (epidermal growth factor) (ligand)
soft agar colonies/10^4 cells, + EGF 20 ng/ml (- EGF: 97) (colonies/10^4 cells): 94
